Measured values as given in publication PMC4859152 (The Biochemical journal, 2015).

What was measured:
SEC [1] = molecular target: the molecule itself; assay: SEC
non-reducing SDS/PAGE = molecular target: the molecule itself; assay: non-reducing SDS/PAGE
SEC [2] = molecular target: the molecule itself; assay: SEC; remark: listed apart in the source

Protein | stoichiometry N (SEC [1]) | stoichiometry N (non-reducing SDS/PAGE) | stoichiometry N (SEC [2])
WT Prx3, hyperoxidized dimer (enzyme, human, UniProt P30048 62-256, looked up, per dimer: one Cys-Sp as sulfinic acid (SpO2-), the other active site a Cys-Sp to Cys-Sr disulfide) APAVTQHAPYFKGTAVVNGEFKDLSLDDFKGKYLVLFFYPLDFTFVCPTEIVAFSDKANEFHDVNCEVVAVSVDSHFSHLAWINTPRKNGGLGHMNIALLSDLTKQISRDYGVLLEGSGLALRGLFIIDPNGVIKHLSVNDLPVGRSVEETLRLVKAFQYVETHGEVCPANWTPDSPTIKPSPAASKEYFQKVNQ | 2 | – | –
CT* Prx3, oxidized (as purified) (enzyme, human, UniProt P30048 62-256, looked up, oxidized form (inter-subunit disulfides)) APAVTQHAPYFKGTAVVNGEFKDLSLDDFKGKYLVLFFYPLDFTFVCPTEIVAFSDKANEFHDVNCEVVAVSVDSHFSHLAWINTPRKNGGLGHMNIALLSDLTKQISRDYGVLLEGSGLALRGLFIIDPNGVIKHLSVNDLPVGRSVEETLRLVKAFQYVETHGEVCPAGWKPGSDTIKPSPAASKEYFQKVNQ | – | 2 | –
WT Prx3, reduced (enzyme, human, UniProt P30048 62-256, looked up) APAVTQHAPYFKGTAVVNGEFKDLSLDDFKGKYLVLFFYPLDFTFVCPTEIVAFSDKANEFHDVNCEVVAVSVDSHFSHLAWINTPRKNGGLGHMNIALLSDLTKQISRDYGVLLEGSGLALRGLFIIDPNGVIKHLSVNDLPVGRSVEETLRLVKAFQYVETHGEVCPANWTPDSPTIKPSPAASKEYFQKVNQ | – | – | 2
WT Prx3, oxidized (disulfide) (enzyme, human, UniProt P30048 62-256, looked up, intermolecular disulfides between Cys-Sp and Cys-Sr of the opposing subunit (two per dimer)) APAVTQHAPYFKGTAVVNGEFKDLSLDDFKGKYLVLFFYPLDFTFVCPTEIVAFSDKANEFHDVNCEVVAVSVDSHFSHLAWINTPRKNGGLGHMNIALLSDLTKQISRDYGVLLEGSGLALRGLFIIDPNGVIKHLSVNDLPVGRSVEETLRLVKAFQYVETHGEVCPANWTPDSPTIKPSPAASKEYFQKVNQ | – | 2 | –
WT Prx2, oxidized (disulfide) (enzyme, human, UniProt P32119 1-198, looked up, intermolecular disulfides between Cys-Sp and Cys-Sr of the opposing subunit (two per dimer)) MASGNARIGKPAPDFKATAVVDGAFKEVKLSDYKGKYVVLFFYPLDFTFVCPTEIIAFSNRAEDFRKLGCEVLGVSVDSQFTHLAWINTPRKEGGLGPLNIPLLADVTRRLSEDYGVLKTDEGIAYRGLFIIDGKGVLRQITVNDLPVGRSVDEALRLVQAFQYTDEHGEVCPAGWKPGSDTIKPNVDDSKEYFSKHN | 10 | 2 | –
CT* Prx2, oxidized (as purified) (enzyme, human, UniProt P32119 1-198, looked up, oxidized form (inter-subunit disulfides)) MASGNARIGKPAPDFKATAVVDGAFKEVKLSDYKGKYVVLFFYPLDFTFVCPTEIIAFSNRAEDFRKLGCEVLGVSVDSQFTHLAWINTPRKEGGLGPLNIPLLADVTRRLSEDYGVLKTDEGIAYRGLFIIDGKGVLRQITVNDLPVGRSVDEALRLVQAFQYTDEHGEVCPANWTPDSPTIKPNVDDSKEYFSKHN | – | 2 | –
